US10435681B2, “Compounds and methods for stabilizing thrombin activity” (Omrix Biopharmaceuticals Ltd., priority 2013, dated 2019)
Entries after “also recorded” stand apart in the source; their conditions may differ. Counter-ions that a name gives are not always drawn. Bridges are numbered along the chain shown (N, C = ends). Where no end group is shown, it is not given here.

Legend:
thrombin [1] = target: T1, thrombin (Homo sapiens, UniProt P00734); assay: Thrombin inhibition testing: clotting activity of 10 IU/ml thrombin towards fibrinogen in the presence of the additive; type: biochemical; conditions: for inhibition of thrombin activity: 0.5 mM additive; for inhibition of thrombin activity / reduction/inhibition of thrombin activity: 10 IU/ml thrombin
T1 construct: yields the active alpha thrombin molecule which is a 295 amino acid polypeptide (human) composed of a heavy and light chain
Experimental: (§1) Thrombin activity was assessed by clotting time measurements using STart4 Coagulation Instrument (DIAGNOSTICA STAGO™, Asnieres sur Seine, France). The assay is a modification of the European Pharmacopoeia Assay procedure, 1997, 0903, p. 858. Briefly, a calibration curve was prepared by mixing thrombin standard with a fibrinogen solution of 0.1% fibrinogen content (Enzyme Research Laboratories, Ind., USA). Thrombin concentration in the different tested samples was then calculated from the calibration curve by their clotting time (the concentration was extrapolated from the calibration curve).
For inhibition testing, the clotting activity of 10 IU/ml thrombin was measured in the presence or absence of peptides.
The assay was carried out as described in Example 1.

thrombin [2] = target: T1, thrombin; assay: Thrombin stability testing: remaining clotting activity of 1000 IU/ml liquid thrombin after storage at 37° C.; type: biochemical; conditions: for maintaining thrombin activity compared with 0.5 mM gamma loop peptide (in words): 3% (w/v) arginine; for stabilization of thrombin activity (in words): 0.5 mM peptide, 1000 IU/ml thrombin, 37° C., 0, 3 and 7 days
Experimental: Aqueous liquid thrombin, in its purified and concentrated form 1000 international units IU/ml may undergo autolysis at room temperature causing a significant loss of activity e.g. towards a heterologous substrate. E.g. thrombin activity towards a heterologous substrate is reduced when a liquid thrombin formulation is incubated at room temperature for prolonged periods of time (e.g. 72 to 144 hours), inter alia, due to autolytic degradation. The decrease of thrombin activity towards a heterologous substrate in aqueous liquid solution can be assessed by measuring thrombin activity after prolonged periods of time and under permissive temperature (e.g. 37° C.). In the following experiments, the effect of a peptide on the stability of thrombin was studied under different conditions.
Aqueous liquid purified and concentrated thrombin (1000 IU/ml; equivalent to about 10 μM) was aliquoted and placed in a 37° C. incubator for 3 days (72 hours), 7 days (168 hours) and 14 days (336 hours). Prior to incubation, thrombin samples were spiked with indicated amounts of different tested peptides or with a control thrombin inhibitor: benzamidine or arginine *HCl (“arginine”). Specific peptides, their concentrations, and thrombin inhibitors used are indicated in each Example. Following the incubation period, the samples were frozen at −80° C. until testing the thrombin activity. Just before thrombin activity assay testing, all the samples were thawed and 100-fold diluted into a dilution buffer (0.4% tri-sodium citrate di-hydrate, 0.9% sodium chloride and 1% BSA, pH=7.5) to bring the thrombin concentration in the sample to that within the specifications of the assay (4-10 IU/ml) and to dilute the tested peptides in the sample to a negligible concentration.
as §1
For stability testing of 1000IU/ml thrombin following storage with or without peptides, testing was carried out as described above. Dilutions (1:100) were carried out before measuring the activity.
All of these peptides (“mutant gamma loop peptides” identified in Example 3, random peptides, thrombin derived peptides, and “gamma loop binding peptides” mentioned above) were tested for their ability to stabilize thrombin activity at a concentration of 0.5 mM as described in Example 2.

thrombin [3] = target: T1, thrombin; assay: Peptide microarray binding with fluorescently labelled thrombin; conditions: for Binding intensity of thrombin (100 μg/ml): DYLIGHT 650-Thrombin; for binding to thrombin (in words): fluorescent thrombin
Experimental: A screen was carried out to identify gamma loop mutants that may show improved binding to thrombin. This was carried out with fluorescent thrombin on an array of gamma loop peptide mutants. Three such cyclized peptides with the highest binding efficiency were tested for their capacity to stabilize thrombin without compromising thrombin activity towards fibrinogen (see Example 4 below).
A library of 1,676 15-meric peptides spanning the sequences of proteins interacting with the gamma loop of thrombin such as thrombin itself, anti-thrombin III (ATIII), thrombomodulin, heparin cofactor II, bovine pancreatic trypsin inhibitor (BPTI), and hirudin, and modifications of the thrombin gamma loop sequence were generated. Peptides were synthesized using SPOT synthesis (Wenschuh H, et al. (2000). Coherent membrane supports for parallel microsynthesis and screening of bioactive peptides. Biopolymers 55:188-206) and were chemoselectively immobilized onto functionalized glass slides as described (Panse S, et al. (2004) Profiling of generic anti-phosphopeptide antibodies and kinases with peptide microarrays using radioactive and fluorescence-based assays. Mol Divers 8:291-299.2.). Each peptide was printed in triplicates onto the microarray. For binding studies, 100 μg of purified thrombin (Omrix biopharmaceuticals) were directly labeled with DYLIGHT® 650 Microscale Antibody Labeling Kits, THERMO SCIENTIFIC™ (#84536) and diluted in blocking buffer SUPERBLOKTM T20 (TBS) Blocking Buffer, THERMO SCIENTIFICTM (#37536). […] cyclic gamma-loop derived peptide for one hour at 30° C. in a HS4800™ microarray processing station (Tecan) (Masch A, et al., (2010) Antibody signatures defined by high-content peptide microarray analysis. Methods Mol Biol 669:161-172).
(§2) Microarrays were washed with 0.1% TWEEN®20 in 1× TBS followed by 0.05% TWEEN®20 in 0.1× SSC and dried in a stream of nitrogen. Each microarray was scanned using GENEPIX® Autoloader 4200AL (Molecular Devices, Pixel size: 10 μm). Signal intensities were evaluated using spot recognition software GENEPIX® Pro 7.0 analysis software (Molecular Devices). For each peptide, the mean signal intensity of the three triplicates was extracted. Further evaluation and representation of results was performed using the statistical computing and graphics software R (Version 2.11.1, www.r-project.org).
(§3) One array included peptides based on the thrombin sequence. Any peptide isolated from this library may reflect possible regions in the thrombin protein that may interact with the gamma loop. […] The fluorescence for the strongest binding candidates (hits) was quantified on an arbitrary scale of 0-65535 (2^16). Thrombin activity was assesed as described in Example 1.

gamma loop of thrombin = target: T2, gamma loop of thrombin (Homo sapiens, UniProt P00734); assay: Peptide microarray binding screen with fluorescent gamma loop peptide; conditions: scale 0-65535
T2 construct: Fluorescein-labeled cyclic gamma-loop derived peptide; made in house; host or cells: chemical synthesis
Experimental: Based on the results disclosed in Example 2, the gamma loop peptide was used as a bait to find additional peptides which may positively affect the stability of thrombin. For this purpose, a binding screen was carried out using a fluorescent gamma loop peptide incubated with several peptide arrays.
A library of 1,676 15-meric peptides spanning the sequences of proteins interacting with the gamma loop of thrombin such as thrombin itself, anti-thrombin III (ATIII), thrombomodulin, heparin cofactor II, bovine pancreatic trypsin inhibitor (BPTI), and hirudin, and modifications of the thrombin gamma loop sequence were generated. Peptides were synthesized using SPOT synthesis (Wenschuh H, et al. (2000). Coherent membrane supports for parallel microsynthesis and screening of bioactive peptides. Biopolymers 55:188-206) and were chemoselectively immobilized onto functionalized glass slides as described (Panse S, et al. (2004) Profiling of generic anti-phosphopeptide antibodies and kinases with peptide microarrays using radioactive and fluorescence-based assays. Mol Divers 8:291-299.2.). Each peptide was printed in triplicates onto the microarray. For binding studies, 100 μg of purified thrombin (Omrix biopharmaceuticals) were directly labeled with DYLIGHT® 650 Microscale Antibody Labeling Kits, THERMO SCIENTIFIC™ (#84536) and diluted in blocking buffer SUPERBLOKTM T20 (TBS) Blocking Buffer, THERMO SCIENTIFICTM (#37536). The microarrays were incubated with 10 μg/ml DYLIGHT® 650-Thrombin or a Fluorescein-labeled cyclic gamma-loop derived peptide for one hour at 30° C. in a HS4800™ microarray processing station (Tecan) (Masch A, et al., (2010) Antibody signatures defined by high-content peptide microarray analysis. Methods Mol Biol 669:161-172).
as §2, §3

`N=C(N)c1ccccc1` [Benzamidine] was tested, and the “inhibition of thrombin activity” value (thrombin [1]) was 20%.

In the case of `N=C(N)NCCC[C@H](N)C(=O)O` [arginine, arginine*HCl], the “reduction/inhibition of thrombin activity” value (“reduction/inhibition” below) (thrombin [1]; 0.5% (w/v) arginine) is reported as “about 50%”, the “reduction/inhibition” value (thrombin [1]; 0.5% (w/v) arginine, listed as Arginine) is reported as 50% and the “reduction/inhibition” value (thrombin [1]; 2% (w/v) arginine) is reported as over 95%. For the same compound, the “inhibition of thrombin (in words)” value (thrombin [1]; 3% (w/v) arginine, extrapolated from FIG. 2A) was “inhibit thrombin almost entirely”, the “thrombin activity following storage (in words)” value (thrombin [2]; 0.5-5% (w/v) arginine, concentrated thrombin, up to 48 hours at 37° C.) was “maintained thrombin activity following storage” and the “maintaining thrombin activity compared with 0.5 mM gamma loop peptide (in words)” value (thrombin [2]; 72 hours at 37° C.) was “not more effective”. The “maintaining thrombin activity compared with 0.5 mM gamma loop peptide (in words)” value (thrombin [2]; 144 hours at 37° C.) was “only marginally so”.

With “CKETWTANVGKC (disulfide 1-12 (inferred)) [SEQ ID NO:3, gamma loop peptide cyclized with terminal cysteine residues]” the “stabilization of thrombin activity (in words)” value (from here on “stabilization”) (thrombin [2]) was “efficient stabilization of thrombin activity; also recorded: capable of stabilizing liquid aqueous thrombin”.

With “CKETWTANVLKC (disulfide 1-12 (inferred)) [SEQ ID NO:6, cyclized mutant gamma loop peptide]” the “stabilization” value (thrombin [2]) was “inefficient”.

With “CKETWTAYVGKC (disulfide 1-12 (inferred)) [SEQ ID NO:5, cyclized mutant gamma loop peptide]” the “stabilization” value (thrombin [2]) was “inefficient”.

For “CKNTWTANVGKC (disulfide 1-12 (inferred)) [SEQ ID NO:4, cyclized mutant gamma loop peptide]”, the “stabilization” value (thrombin [2]) was “inefficient”.

In the case of “ISMLEKIYIHPRYNW [Thr_111, thrombin derived peptide]”, the “Binding intensity of thrombin (100 μg/ml)” value (thrombin [3]) is reported as 60199, the “binding to thrombin (in words)” value (thrombin [3]) is reported as “strongest interaction with thrombin” and the “Binding intensity of gamma loop” value (gamma loop of thrombin) is reported as 32804 arbitrary units. For the same compound, the “stabilization” value (thrombin [2]) was “increased thrombin degradation; also recorded: destabilization effect”.

With KETWTANVGK [SEQ ID NO:1] the “inhibition of thrombin activity” value (thrombin [1]) was “about 20%”.

With LGNKKFVSGSRFVST [Rnd_inter_316] the “Binding intensity of thrombin (100 μg/ml)” value (thrombin [3]) was 12353, the “inhibition of thrombin activity (in words)” value (thrombin [1]; any concentration tested) was “absolutely no inhibition” and the “Binding intensity of gamma loop” value (gamma loop of thrombin) was 26628 arbitrary units. The “stabilization” value (thrombin [2]; listed as SEQ ID NO:12) was “some stabilization effect; also recorded: capable of stabilizing liquid aqueous thrombin”.

In the case of “NITRSGIESQLWRSR [Thr_031_CS, thrombin derived peptide, Cysteine replaced by Serine]”, the “Binding intensity of thrombin (100 μg/ml)” value (thrombin [3]) is reported as 18537, the “Binding intensity of gamma loop” value (gamma loop of thrombin) is reported as 40787 arbitrary units and the “stabilization” value (thrombin [2]) is reported as “some stabilization effect”. The “stabilization” value (thrombin [2]; listed as SEQ ID NO:9) was “capable of stabilizing liquid aqueous thrombin”.

For “RIRITDNMFSAGYKP [Thr_136_CS, thrombin derived peptide, Cysteine replaced by Serine]”, the “Binding intensity of thrombin (100 μg/ml)” value (thrombin [3]) was 5535, the “binding to thrombin (in words)” value (thrombin [3]) was “weakest fluorescent signal” and the “Binding intensity of gamma loop” value (gamma loop of thrombin) was 25278 arbitrary units. The “stabilization” value (thrombin [2]) was “least effective; also recorded: weaker stabilization effect” and the “stabilization” value (thrombin [2]; listed as SEQ ID NO:11) was “capable of stabilizing liquid aqueous thrombin”.

“SGIESQLWRSRYPHK [Thr_032_CS, thrombin derived peptide, Cysteine replaced by Serine]” was tested, and the “Binding intensity of thrombin (100 μg/ml)” value (thrombin [3]) was 15079, the “Binding intensity of gamma loop” value (gamma loop of thrombin) was 35117 arbitrary units and the “stabilization” value (thrombin [2]) was “some stabilization effect”. For the same compound, the “stabilization” value (thrombin [2]; listed as SEQ ID NO:10) was “capable of stabilizing liquid aqueous thrombin”.

SHNQRFVTYLGSKLG [Rnd_inter_155] was tested, and the “Binding intensity of thrombin (100 μg/ml)” value (thrombin [3]) was 23646, the “Binding intensity of gamma loop” value (gamma loop of thrombin) was 19539 arbitrary units and the “stabilization” value (thrombin [2]; listed as SEQ ID NO:13) was “some stabilization effect; also recorded: capable of stabilizing liquid aqueous thrombin”.

For “WCYVAGKPGDFGYCD [Thr_069, thrombin derived peptide]”, the “Binding intensity of thrombin (100 μg/ml)” value (thrombin [3]) was 3141, the “binding to thrombin (in words)” value (thrombin [3]) was “very weak binding to thrombin” and the “Binding intensity of gamma loop” value (gamma loop of thrombin) was 50553 arbitrary units. The “stabilization” value (thrombin [2]) was “minimal effect on thrombin stability; also recorded: weaker stabilization effect” and the “stabilization” value (thrombin [2]; listed as SEQ ID NO:7) was “capable of stabilizing liquid aqueous thrombin”.
